The values below come from article PMC11169341.

The data set concerns the target T1, B7H3 on Weri-RB1 cells (UniProt Q5ZPR3).
T1 sequence: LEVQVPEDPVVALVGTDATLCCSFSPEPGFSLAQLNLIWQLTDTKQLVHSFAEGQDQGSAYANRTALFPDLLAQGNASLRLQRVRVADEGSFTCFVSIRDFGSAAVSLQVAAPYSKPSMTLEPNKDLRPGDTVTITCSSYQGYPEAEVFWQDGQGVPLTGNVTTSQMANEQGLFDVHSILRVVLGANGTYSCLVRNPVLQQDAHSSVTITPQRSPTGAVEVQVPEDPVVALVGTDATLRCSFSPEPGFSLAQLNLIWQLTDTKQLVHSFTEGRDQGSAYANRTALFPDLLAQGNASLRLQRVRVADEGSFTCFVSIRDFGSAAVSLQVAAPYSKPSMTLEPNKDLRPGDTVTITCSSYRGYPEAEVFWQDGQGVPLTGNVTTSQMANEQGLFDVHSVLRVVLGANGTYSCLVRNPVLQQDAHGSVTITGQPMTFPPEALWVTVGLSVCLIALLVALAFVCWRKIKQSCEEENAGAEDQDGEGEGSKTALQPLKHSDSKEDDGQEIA
In words: flow cytometry. Particulars: FITC aptamer, ABB: AWB (composition not given) + 0.1 mg/ml yeast tRNA, 0.1 mg/ml salmon sperm DNA, 5% FBS, 1 mg/ml BSA, 60 min, 0-500 nM …, flow binding assay on ice, d. A general note: In flow cytometry, cells or beads pass a laser one at a time.
By Kd is commonly meant the equilibrium constant for the complex coming apart. As for “TAGGGAAGAGAAGGACATATGATATAAGTGACACATCAATCTCATGCGGATGAACCAGTGCGTTTGACTAGTACATGACCACTT [VRF-HS_B7H3-03]”, the dissociation constant (Kd) stood at 46.6 nM.

Regarding “TAGGGAAGAGAAGGACATATGATACAGCACGGTATGACGAGTCCATTGTGTGTGCAGCTCGCTAATTGACTAGTACATGACCACTT [VRF-HS_B7H3-01]”, the Kd was 32.1 nM.

For the sequence “TAGGGAAGAGAAGGACATATGATTGCCCCTGACACTTACACGCCACTATCAAGGCACACGCCATTGACTAGTACATGACCACTT [VRF-HS_B7H3-04]”, the Kd was 51.4 nM.

Take “TAGGGAAGAGAAGGACATATGATCGCCCCTCTTTTCGATTTCAAGCTCCTAACCCACACCTCTTTGACTAGTACATGACCACTT [VRF-HS_B7H3-02]”: the Kd worked out at 47.2 nM.

Consider “TAGGGAAGAGAAGGACATATGATTGAGAAGTCACGCCACTTACCTGCGCTCAAAACCTCAGAATTGACTAGTACATGACCACTT [VRF-HS_B7H3-05]”, for which the Kd was found to be 50.6 nM.
